Data: article PMC8748919, “Dynamics and mechanism of dimer dissociation of photoreceptor UVR8” (Nature Communications, 2022)

B1: UVR8 W144 single-Trp mutant (receptor, Arabidopsis thaliana, UniProt Q9FN03 1-440, looked up)
chain: MAEDMAADEVTAPPRKVLIISAGASHSVALLSGDIVCSWGRGEDGQLGHGDAEDRPSPTQLSALDGHQIVSVTCGADHTVAYSQSGMEVYSWGWGDFGRLGHGNSSDLFTPLPIKALHGIRIKQIACGDSHCLAVTMEGEVQSFGRNQNGQLGLGDTEDSLVPQKIQAFEGIRIKMVAAGAEHTAAVTEDGDLYGWGWGRYGNLGLGDRTDRLVPERVTSTGGEKMSMVACGWRHTISVSYSGALYTYGWSKYGQLGHGDLEDHLIPHKLEALSNSFISQISGGWRHTMALTSDGKLYGWGWNKFGQVGVGNNLDQCSPVQVRFPDDQKVVQVSCGWRHTLAVTERNNVFAWGRGTNGQLGIGESVDRNFPKIIEALSVDGASGQHIESSNIDPSSGKSWVSPAERYAVVPDETGLTDGSSKGNGGDISVPQTDVKRVRI
notes: UVR8, Arabidopsis thaliana; mutant plasmid built on the wild-type plasmid; also called W144F; source: E. coli BL21-DE3, purified (Ni-Sepharose, Source-15Q)
B2: UVR8 W196 single-Trp mutant (receptor, Arabidopsis thaliana, UniProt Q9FN03 1-440, looked up)
chain: MAEDMAADEVTAPPRKVLIISAGASHSVALLSGDIVCSWGRGEDGQLGHGDAEDRPSPTQLSALDGHQIVSVTCGADHTVAYSQSGMEVYSWGWGDFGRLGHGNSSDLFTPLPIKALHGIRIKQIACGDSHCLAVTMEGEVQSWGRNQNGQLGLGDTEDSLVPQKIQAFEGIRIKMVAAGAEHTAAVTEDGDLYGFGWGRYGNLGLGDRTDRLVPERVTSTGGEKMSMVACGWRHTISVSYSGALYTYGWSKYGQLGHGDLEDHLIPHKLEALSNSFISQISGGWRHTMALTSDGKLYGWGWNKFGQVGVGNNLDQCSPVQVRFPDDQKVVQVSCGWRHTLAVTERNNVFAWGRGTNGQLGIGESVDRNFPKIIEALSVDGASGQHIESSNIDPSSGKSWVSPAERYAVVPDETGLTDGSSKGNGGDISVPQTDVKRVRI
notes: UVR8, Arabidopsis thaliana; mutant plasmid built on the wild-type plasmid; also called W196F; source: E. coli BL21-DE3, purified (Ni-Sepharose, Source-15Q)
B3: UVR8 W300 single-Trp mutant (receptor, Arabidopsis thaliana, UniProt Q9FN03 1-440, looked up)
chain: MAEDMAADEVTAPPRKVLIISAGASHSVALLSGDIVCSWGRGEDGQLGHGDAEDRPSPTQLSALDGHQIVSVTCGADHTVAYSQSGMEVYSWGWGDFGRLGHGNSSDLFTPLPIKALHGIRIKQIACGDSHCLAVTMEGEVQSWGRNQNGQLGLGDTEDSLVPQKIQAFEGIRIKMVAAGAEHTAAVTEDGDLYGWGWGRYGNLGLGDRTDRLVPERVTSTGGEKMSMVACGWRHTISVSYSGALYTYGWSKYGQLGHGDLEDHLIPHKLEALSNSFISQISGGWRHTMALTSDGKLYGFGWNKFGQVGVGNNLDQCSPVQVRFPDDQKVVQVSCGWRHTLAVTERNNVFAWGRGTNGQLGIGESVDRNFPKIIEALSVDGASGQHIESSNIDPSSGKSWVSPAERYAVVPDETGLTDGSSKGNGGDISVPQTDVKRVRI
notes: UVR8, Arabidopsis thaliana; mutant plasmid built on the wild-type plasmid; also called W300F; source: E. coli BL21-DE3, purified (Ni-Sepharose, Source-15Q)
B4: UVR8 W94F (receptor, Arabidopsis thaliana, UniProt Q9FN03 1-440, looked up)
chain: MAEDMAADEVTAPPRKVLIISAGASHSVALLSGDIVCSWGRGEDGQLGHGDAEDRPSPTQLSALDGHQIVSVTCGADHTVAYSQSGMEVYSWGFGDFGRLGHGNSSDLFTPLPIKALHGIRIKQIACGDSHCLAVTMEGEVQSWGRNQNGQLGLGDTEDSLVPQKIQAFEGIRIKMVAAGAEHTAAVTEDGDLYGWGWGRYGNLGLGDRTDRLVPERVTSTGGEKMSMVACGWRHTISVSYSGALYTYGWSKYGQLGHGDLEDHLIPHKLEALSNSFISQISGGWRHTMALTSDGKLYGWGWNKFGQVGVGNNLDQCSPVQVRFPDDQKVVQVSCGWRHTLAVTERNNVFAWGRGTNGQLGIGESVDRNFPKIIEALSVDGASGQHIESSNIDPSSGKSWVSPAERYAVVPDETGLTDGSSKGNGGDISVPQTDVKRVRI
notes: UVR8, Arabidopsis thaliana; mutant plasmid built on the wild-type plasmid; source: E. coli BL21-DE3, purified (Ni-Sepharose, Source-15Q)
B5: UVR8 W337F (receptor, Arabidopsis thaliana, UniProt Q9FN03 1-440, looked up)
chain: MAEDMAADEVTAPPRKVLIISAGASHSVALLSGDIVCSWGRGEDGQLGHGDAEDRPSPTQLSALDGHQIVSVTCGADHTVAYSQSGMEVYSWGWGDFGRLGHGNSSDLFTPLPIKALHGIRIKQIACGDSHCLAVTMEGEVQSWGRNQNGQLGLGDTEDSLVPQKIQAFEGIRIKMVAAGAEHTAAVTEDGDLYGWGWGRYGNLGLGDRTDRLVPERVTSTGGEKMSMVACGWRHTISVSYSGALYTYGWSKYGQLGHGDLEDHLIPHKLEALSNSFISQISGGWRHTMALTSDGKLYGWGWNKFGQVGVGNNLDQCSPVQVRFPDDQKVVQVSCGFRHTLAVTERNNVFAWGRGTNGQLGIGESVDRNFPKIIEALSVDGASGQHIESSNIDPSSGKSWVSPAERYAVVPDETGLTDGSSKGNGGDISVPQTDVKRVRI
notes: as for B4
B6: UVR8 W198 single-Trp mutant (receptor, Arabidopsis thaliana, UniProt Q9FN03 1-440, looked up)
chain: MAEDMAADEVTAPPRKVLIISAGASHSVALLSGDIVCSWGRGEDGQLGHGDAEDRPSPTQLSALDGHQIVSVTCGADHTVAYSQSGMEVYSWGWGDFGRLGHGNSSDLFTPLPIKALHGIRIKQIACGDSHCLAVTMEGEVQSWGRNQNGQLGLGDTEDSLVPQKIQAFEGIRIKMVAAGAEHTAAVTEDGDLYGWGFGRYGNLGLGDRTDRLVPERVTSTGGEKMSMVACGWRHTISVSYSGALYTYGWSKYGQLGHGDLEDHLIPHKLEALSNSFISQISGGWRHTMALTSDGKLYGWGWNKFGQVGVGNNLDQCSPVQVRFPDDQKVVQVSCGWRHTLAVTERNNVFAWGRGTNGQLGIGESVDRNFPKIIEALSVDGASGQHIESSNIDPSSGKSWVSPAERYAVVPDETGLTDGSSKGNGGDISVPQTDVKRVRI
notes: UVR8, Arabidopsis thaliana; mutant plasmid built on the wild-type plasmid; also called W198F; source: E. coli BL21-DE3, purified (Ni-Sepharose, Source-15Q)

Biological target: the molecule itself
Assay: SEC; dimer/monomer state of the purified protein before UV irradiation; 150 mM NaCl, 25 mM Tris-HCl, pH 8.0

Binding result, binds:
B1
B2
B3
B4
B5
B6
